The nature of the series: protein stability index of a GFP-peptide fusion (GPS, HEK-293T) (PSI 1-6); higher = more stable. Particulars: c terminus: a fixed tail appended.

± gives the standard deviation.
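Further: 24-mer peptide tiles fused after GFP, lentivirally expressed, FACS-sorted into six equal bins by GFP/DsRed ratio, decoded by Illumina sequencing, PSI is the read-weighted mean bin number.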

RLLGSVQQDLERSLQDASRGDPAH [PBXIP1] displayed a protein stability index (treatment: DMSO) of 4.7 ± 0.2 and a protein stability index (treatment: MLN4924 1 uM, 8 h) of 4.56 ± 0.46.
Regarding GALLAPIRVLLAFIVLFLLWPFAW [LPCAT4], the protein stability index reads like this: (treatment: DMSO) 2.68 ± 0.51; (treatment: MLN4924 1 uM, 8 h) 2.67 ± 0.54.
In the same order, the values of QRVLFSGSSDHSVIMWDIGGRKGT [WDFY2] are 2.8 ± 0.43 and 2.94 ± 0.14.
In the same order, the values of SQEPDPVQRLQAYTATEQEMQQQM [TRIM14] are 5.39 ± 0.15 and 5.17 ± 0.14.
The corresponding values for YLESETETTEAIDDEGWLHSGDLG [ACSBG2] are 5.25 ± 0.14 and 5.497 ± 0.035.
In the case of GGYEKASKRMTFQMPKFDLGPLLS [MYOZ1], the protein stability index by setting is: (treatment: DMSO) 2.54 ± 0.32; (treatment: MLN4924 1 uM, 8 h) 2.64 ± 0.22.
In the same order, the values of TQAPPSVILGVTNPFFAKTLQHWP [DENND6A] are 2.26 ± 0.24 and 2.12 ± 0.17.
In the same order, the values of PALDSLAYEYEREGLYEQAFQLLR [TRADD] are 2.64 ± 0.15 and 2.9 ± 0.29.
The corresponding values for MQNSNECKRNFVAVYDGSSSVEDL [NETO1] are 4.59 ± 0.066 and 4.68 ± 0.22.
Regarding KTQSELASESEHIPKPQSTGWFGG [MIA2], the protein stability index was found to be 3.97 ± 0.12 (treatment: DMSO) and 4.43 ± 0.096 (treatment: MLN4924 1 uM, 8 h).
The corresponding values for LTDAVAPGNKGRGQRGNTESKTDG [TCF25] are 5.5 ± 0.27 and 5.48 ± 0.45.
In the same order, the values of PYTEKPRLWHTACASDEGEVIVFG [KLHDC2] are 2.51 ± 0.21 and 2.86 ± 0.23.
The corresponding values for PLSKSSPATTVTSPNSTPAKTIDT [SNAP91] are 5.18 ± 0.19 and 5.18 ± 0.12.
Consider DMSYSIRHSISMPAMRNSPTFKSF [TPD52L1], for which the protein stability index was determined as 2.94 ± 0.24 (treatment: DMSO) and 2.95 ± 0.32 (treatment: MLN4924 1 uM, 8 h).
In the same order, the values of LFGGFTTDKQPLSDAWTYCISKNE [KLHDC2] are 2.63 ± 0.47 and 2.75 ± 0.28.
On to ERENVAVAKLQESQPGNAVIDKET [SDE2], for which the protein stability index worked out at 5.37 ± 0.25 (treatment: DMSO) and 5.06 ± 0.21 (treatment: MLN4924 1 uM, 8 h).
Consider IEFNPRIGKWFDFKLFFNGRPGIV [DHCR7], for which the protein stability index turned out to be 2.63 ± 0.44 (treatment: DMSO) and 2.91 ± 0.91 (treatment: MLN4924 1 uM, 8 h).
Consider GAFYRRAQRLRPQDEPRQGCQPED [KCNG1], for which the protein stability index runs as follows: (treatment: DMSO) 5.21 ± 0.18; (treatment: MLN4924 1 uM, 8 h) 5.11 ± 0.11.
The corresponding values for YGYLPEDKVLGTFEFDETSFWNSS [KLHDC2] are 2.66 ± 0.25 and 2.98 ± 0.34.
In the case of RKQRRRERWLQKQGKYSGVGLLDH [RNF180], the protein stability index runs as follows: (treatment: DMSO) 3.43 ± 0.26; (treatment: MLN4924 1 uM, 8 h) 3.94 ± 0.33.
The sequence QTVTVEEAAGGESALAPSVFKQAK [MAP2] returned a protein stability index (treatment: DMSO) of 5.21 ± 0.32 and a protein stability index (treatment: MLN4924 1 uM, 8 h) of 5.38 ± 0.45.
For LSTIEELIKDAIVSTQPAMMVNLR [C2CD2L], the protein stability index (treatment: DMSO) is 2.2 ± 0.29 and the protein stability index (treatment: MLN4924 1 uM, 8 h) worked out at 2.35 ± 0.17.
In the same order, the values of LLRDRTGQQSDTAQLELYQLQVES [SCARA5] are 4.42 ± 0.37 and 4.56 ± 0.13.
In the same order, the values of ACLIVMFLPEKKDTGVFAVVNSHS [SLC22A15] are 3.22 ± 0.56 and 2.12 ± 0.19.
In the same order, the values of PLPESLASLHPSVSPGSPPPPLPN [PLAGL1] are 5.01 ± 0.27 and 4.95 ± 0.16.
KSDSPTGDVLLDETLKHIKATEPT [GOLPH3L]: the protein stability index is, setting by setting: (treatment: DMSO) 5.16 ± 0.27; (treatment: MLN4924 1 uM, 8 h) 5.26 ± 0.15.
The corresponding values for GREDEDGWETRGDRKARKPLVEKK [HES6] are 5.4 ± 0.14 and 5.34 ± 0.37.
In the same order, the values of MMEKILGPIPSHMIHRTRKQKYFY [CLK3] are 2.27 ± 0.84 and 2.12 ± 0.3.
The corresponding values for QLYMEQFTKANFWYQPSFHGVDLS [CARM1] are 2.42 ± 0.71 and 2.48 ± 0.31.
Consider ETSVGTYESHSTSELEDLTEPEQR [TPD52L3], for which the protein stability index worked out at 5.69 ± 0.14 (treatment: DMSO) and 5.45 ± 0.28 (treatment: MLN4924 1 uM, 8 h).
The corresponding values for SRTVRQFQFTDWPEQGVPKSGEGF [PTPRD] are 3.88 ± 0.25 and 4.02 ± 0.68.
In the case of LHSEFDEQHGKKVPTVSRPYSFIE [SEC22B], the protein stability index is, setting by setting: (treatment: DMSO) 4.04 ± 0.13; (treatment: MLN4924 1 uM, 8 h) 4.14 ± 0.24.
The corresponding values for TPLHRDKTPLHQKHAAFVTPDQKY [MYBL2] are 4.11 ± 0.2 and 4.08 ± 0.24.
On to LEVAMEEEGLADEEKKLRRSQHAR [STK38L], for which the protein stability index reads like this: (treatment: DMSO) 5.43 ± 0.3; (treatment: MLN4924 1 uM, 8 h) 5.27 ± 0.35.
In the same order, the values of HRRRSRERGPYRTRKHAHHCHKRR [CLK3] are 4.49 ± 0.31 and 4.57 ± 0.25.
The corresponding values for EVDGLRGTNEALLRQLRELEEQFA [PRPH] are 4.35 ± 0.17 and 4.32 ± 0.26.

(Values after the supplement of paper PMC10567573.)
